# Assay results as given in patent publication US20030165991A1.
# B1: synthetic peptide C430 (NH2-…-COOH) (peptide)
# peptide: H-SWGPFPFGGGSC-OH
# How the values were obtained:
# [1] = molecular target: Monoclonal antibody mAB 6F5 (anti-deoxynivalenol monoclonal antibody from hybridoma cell line 6F5); assay: CD-ELISA, immobilized mAB 6F5; C430 competing with DON-HRP or C430-HRP conjugate
# [2] = molecular target: antiserum from C430-BSA-immunized mice; assay: CI-ELISA, immobilized phage-displayed DONPEP.2, antiserum after the fourth injection, free C430 as competitor
binder,measurement,setting,value
B1,IC50,[1],640 to 800 nM
same,IC50,[2],390 nM
